The text below walks through data of patent US20070212347A1 (published 2007).

For test [1], the target named is GST-p53 construct (Res. 73-390) [GST: P08515]. The experiment in a line: in vitro binding, ^35S-T-antigen probe on bead-immobilized GST-p53.
The target in test [2] is T1, ^35S-PKD2 probe (C-terminal region of polycystin-2, Res. 657-968) (UniProt Q13563 657-968, ^35S-labeled (in vitro translation)).
T1 construct: range 657-968; In vitro translated in the same manner as the Ig probes; also called polycystin-2 probe; PKD2 gene product
T1 sequence (looked up): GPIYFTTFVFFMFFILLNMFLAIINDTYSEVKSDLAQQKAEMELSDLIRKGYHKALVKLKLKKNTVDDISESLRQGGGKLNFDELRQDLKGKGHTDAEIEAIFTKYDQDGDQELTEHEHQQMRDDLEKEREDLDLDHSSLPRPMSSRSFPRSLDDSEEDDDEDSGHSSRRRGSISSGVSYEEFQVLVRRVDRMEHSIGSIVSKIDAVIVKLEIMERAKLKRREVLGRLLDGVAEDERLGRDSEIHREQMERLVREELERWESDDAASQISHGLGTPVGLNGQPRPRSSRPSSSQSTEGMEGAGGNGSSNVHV
The test can be described thus: in vitro binding, autoradiogram (FIG. 12C).

Test [3] addresses T2, GST-Ig^b fusion protein (polycystin-1 Ig-like domains VI-X, amino acids 1205-1625, fused to GST) (human, UniProt P98161 1205-1625).
T2 construct: used soluble in the MDCK adhesion assays; not shown: glutathione S-transferase carrier encoded by the pGEX vector (Pharmacia), N-terminal fusion partner; linker residues not
T2 sequence: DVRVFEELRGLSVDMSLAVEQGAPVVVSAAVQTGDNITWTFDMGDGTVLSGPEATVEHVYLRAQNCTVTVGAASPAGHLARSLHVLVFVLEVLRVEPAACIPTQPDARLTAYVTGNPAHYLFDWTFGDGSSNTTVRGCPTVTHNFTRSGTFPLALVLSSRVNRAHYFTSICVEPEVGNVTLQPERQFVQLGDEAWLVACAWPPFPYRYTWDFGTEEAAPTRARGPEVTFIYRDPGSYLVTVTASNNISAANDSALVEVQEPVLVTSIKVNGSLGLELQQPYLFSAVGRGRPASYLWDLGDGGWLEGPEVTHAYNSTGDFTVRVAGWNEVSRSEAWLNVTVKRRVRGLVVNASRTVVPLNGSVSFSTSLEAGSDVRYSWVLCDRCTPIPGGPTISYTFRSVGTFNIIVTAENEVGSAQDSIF
The test can be described thus: in vitro binding, ^35S in vitro translated probe on bead-immobilized GST fusion.

The target of test [4] is Ig^b and Ig^c, as partners of Ig^b in the 'Ig^b-Ig^b, Ig^b-Ig^c combinations'. The experiment in a line: in vitro binding, ^35S in vitro translated probe on bead-immobilized GST fusion, PhosphorImager.

GST-p53 construct (Res. 73-390) [GST: P08515], sequence (P08515 whole entry): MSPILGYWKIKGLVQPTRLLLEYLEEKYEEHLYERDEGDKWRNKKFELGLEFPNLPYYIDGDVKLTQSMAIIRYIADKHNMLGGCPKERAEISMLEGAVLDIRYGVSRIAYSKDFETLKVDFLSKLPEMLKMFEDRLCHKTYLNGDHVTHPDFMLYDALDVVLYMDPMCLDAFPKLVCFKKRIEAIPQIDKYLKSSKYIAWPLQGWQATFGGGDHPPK

With “^35S-T-antigen probe (SV40 large T-antigen, res. 87-708) (from UniProt P03070 87-708)”, in test [1], the bound fraction (percentage of input probe) was 45%.

B1: MBP-PKD1 fusion protein (C-terminal region of polycystin-1, Res. 4077-4302, fused to MBP) (other, not shown: large carriers)
chain: ESWHLSPLLCVGLWALRLWGALRLGAVILRWRYHALRGELYRPAWEPQDYEMVELFLRRLRLWMGLSKVKEFRHKVRFEGMEPLPSRSSRGSKVSPDVPPPSAGSDASHPSTSSSQLDGLSVSLGRLGTRCEPEPSRLQAVFEALLTQFDRLNQATEDVYQLEQQLHSLQGRRSSRAPAGSSRGPSPGLRPALPSRLARASRGVDLATGPSRTPLRAKNKVHPSST
notes: Immobilized on amylose resin; also called polycystin-1 c-terminal fusion protein
With B1, the binding result in test [2] is listed as “binds”.

B2: ^35S-Ig^b in vitro translated probe (polycystin-1 Ig-like domains VI-X) (other)
chain: DVRVFEELRGLSVDMSLAVEQGAPVVVSAAVQTGDNITWTFDMGDGTVLSGPEATVEHVYLRAQNCTVTVGAASPAGHLARSLHVLVFVLEVLRVEPAACIPTQPDARLTAYVTGNPAHYLFDWTFGDGSSNTTVRGCPTVTHNFTRSGTFPLALVLSSRVNRAHYFTSICVEPEVGNVTLQPERQFVQLGDEAWLVACAWPPFPYRYTWDFGTEEAAPTRARGPEVTFIYRDPGSYLVTVTASNNISAANDSALVEVQEPVLVTSIKVNGSLGLELQQPYLFSAVGRGRPASYLWDLGDGGWLEGPEVTHAYNSTGDFTVRVAGWNEVSRSEAWLNVTVKRRVRGLVVNASRTVVPLNGSVSFSTSLEAGSDVRYSWVLCDRCTPIPGGPTISYTFRSVGTFNIIVTAENEVGSAQDSIF
modifications: ^35S-labeled (in vitro translation)
notes: Translated in reticulocyte lysate without the GST portion, from an AUG in a Kozak context placed upstream of the insert
Turning to B2, the binding result in test [3] is “binds”. Besides, the bound fraction (percentage of input probe) in test [4] was 25 to 45%.
